This note sets out measurements from US20120014941A1 (Hoffmann-La Roche, published 2012).

For experiment [1], the target named is T1, recombinant human Bv8 (PeproTech) (human, UniProt Q9HC23-2 28-108, biotinylated (Sulfo-NHS-LC-biotin) in the two competition ELISAs with coated antibody).
T1 construct: Bought protein; also called HuBv8; prokineticin-2
T1 sequence (looked up): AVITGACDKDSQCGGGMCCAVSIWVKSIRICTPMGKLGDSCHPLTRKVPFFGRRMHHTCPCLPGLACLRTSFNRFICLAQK
Briefly: phage competition ELISA: Fab-displaying phage preincubated with serially diluted soluble human Bv8 (the concentration on the axis), unbound phage captured on plate-coated human Bv8, anti-M13-HRP; bound phage in %. On the procedure: (§1) MAXISORP™ microtiter plates were coated with recombinant human Bv8 (PeproTech) at 2 μg/ml in PBS overnight and then blocked with PBST buffer (0.5% BSA and 0.05% Tween 20 in PBS) for an hour at room temperature (RT). Phage from culture supernatants were incubated with serially diluted human Bv8 in PBST buffer in a tissue-culture microtiter plate for an hour at RT, after which 80 μl of the mixture was transferred to the target-coated wells for 15 minutes to capture unbound phage. The plate was washed with PBT buffer (0.05% Tween 20 in PBS), and HRP-conjugated anti-M13 (Amersham Pharmacia Biotech) was added (1:5000 in PBST buffer) for 40 minutes. The plate was washed with PBT buffer and developed by adding tetramethylbenzidine substrate (Kirkegaard and Perry Laboratories, Gaithersburg, Md.). The absorbance at 450 nm was plotted as a function of target concentration in solution to determine phage IC₅₀.

Experiment [2] has as its target T1, recombinant human Bv8 (PeproTech). The experiment is described as follows: phage competition ELISA, Fab displayed on phage. On the procedure:
as §1

B1: h2G9.K4G1 variant CDR-H3 D95E (Fab, V domains shown)
VH: EVQLVQSGAEVKKPGASVKVSCKASGYSFTDYDMHWVRQAPGQGLEWIGYISCYNGATTYNQKFKGRVTITVDKSTSTAYLELSSLRSEDTAVYYCAREGNYGEAYAMDYWGQGTLVTVSS
VL: DIVMTQSPDSLAVSLGERATINCKASQSVDYDGDSYMNWYQQKPGQPPKLLIYAASNLESGVPDRFSGSGSGTDFTLTISSLQAEDVAVYYCQQINEDPFTFGQGTKVEIK
Regarding B1, the “IC50 (read off the curve)” value in experiment [1] was around 4 nM. Also, in experiment [2], the “fold drop in binding affinity compared to h2G9.K4G1” value was 100 fold.
